Assay results reported in publication PMC8496131, “Accessing Chemo- and Regioselective Benzylic and Aromatic Oxidations by Protein Engineering of an Unspecific Peroxygenase” (ACS Catalysis, 2021).
Numbering of substitutions follows the chain as printed. Names and notes keep the numbering of the source.

B1: MthUPO (Thermothelomyces thermophilus ATCC 42464) (protein)
chain: AGFDTWSPPGPYDVRAPCPMLNTLANHGFLPHDGKDITREQTENALFEALHINKTLASFLFDFALTTNPKNTSTFSLNDLGNHNILEHDASLSRADAYFGNVLQFNQTVFDETKTYWEGDTIDLRMAAKARLGRIKTSQATNPTYSMSELGDAFTYGESAAYVVVLGDKESRTVKRSWVEWFFEHEQLPQHLGWKRPAASFEEEDLNSSMEEIEKYTKELEGSNSTSGSQKHRRRLPRRRAHFGF
notes: secreted from S. cerevisiae, purified; 245 AA plus C-terminal TwinStrep-GFP11 tag; heme-thiolate
B2: MthUPO (Thermothelomyces thermophilus ATCC 42464; L76F) (protein)
chain: B1 chain with L60F
notes: as for B1
B3: MthUPO (Thermothelomyces thermophilus ATCC 42464; F170A/F75Q/L76M/S175G) (protein)
chain: B1 chain with F59Q, L60M, F154A, S159G
notes: as for B1
B4: MthUPO (Thermothelomyces thermophilus ATCC 42464; F75Q/L76F/S175G) (protein)
chain: B1 chain with F59Q, L60F, S159G
notes: as for B1
B5: MthUPO (Thermothelomyces thermophilus ATCC 42464; A177F/L76F/S175G) (protein)
chain: B1 chain with L60F, S159G, A161F
notes: as for B1

Substrate: O=[N+]([O-])c1ccc2c(c1)OCO2
Assay: purified protein
Format: biochemical, Thermothelomyces thermophilus
Conditions: H2O2 as saturating co-substrate, standard deviation <18%

Protein | Km (20 nM enzyme) | kcat (20 nM enzyme) | kcat/Km (20 nM enzyme) | Km (5 nM enzyme) | kcat (5 nM enzyme) | kcat/Km (5 nM enzyme)
B1 | 386 µM | 7.1 s⁻¹ | 19000 M⁻¹ s⁻¹ | – | – | –
B2 | – | – | – | 110 µM | 2.9 s⁻¹ | 27000 M⁻¹ s⁻¹
B3 | 290 µM | 59.4 s⁻¹ | 210000 M⁻¹ s⁻¹ | – | – | –
B4 | 303 µM | 47 s⁻¹ | 160000 M⁻¹ s⁻¹ | – | – | –
B5 | 422 µM | 132 s⁻¹ | 310000 M⁻¹ s⁻¹ | – | – | –
